Biological target: LMW-E-T1 (low molecular weight form of cyclin E, T1), MMTV transgene in mouse salivary gland tumors

## CDK1 (endogenous in mouse salivary gland tumors) (from UniProt P11440 1-297) (enzyme)
  decrease of cyclin E-associated histone H1 kinase activity after 3 rounds of immunodepletion of CDK1 (90%), CDK2+/+ tumor lysate (sample 3085): 7%
  decrease of cyclin E-associated histone H1 kinase activity after 3 rounds of immunodepletion of CDK1 (90%), CDK2-/- tumor lysate (sample 4111): 14%

— publication PMC8121779
